Test results published in patent publication US20220112288A1 (published 2022).
Substitutions are numbered along the chain they refer to. One block for each binder: values may come before it.

Target: T1, Rhesus macaque CD4-HIS (Acro Biosystems, Cat. CD4-C52H7) (rhesus macaque, UniProt P16003 26-390)
T1 construct: Bought reagent; also called Rhesus CD4; rhesus CD4-HIS; not shown: His tag
Assay: BLI (Octet Red384); Ab on anti-mouse Fc (AMC) sensor; rhesus CD4-HIS 100/50/25 nM; global 1:1 fit;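 also: antibodies loaded at 10 µg/mL, an unrelated mouse-derived antibody served as internal reference, curves fit over association and dissociation phases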

T1 sequence (P16003 26-390 limits assumed): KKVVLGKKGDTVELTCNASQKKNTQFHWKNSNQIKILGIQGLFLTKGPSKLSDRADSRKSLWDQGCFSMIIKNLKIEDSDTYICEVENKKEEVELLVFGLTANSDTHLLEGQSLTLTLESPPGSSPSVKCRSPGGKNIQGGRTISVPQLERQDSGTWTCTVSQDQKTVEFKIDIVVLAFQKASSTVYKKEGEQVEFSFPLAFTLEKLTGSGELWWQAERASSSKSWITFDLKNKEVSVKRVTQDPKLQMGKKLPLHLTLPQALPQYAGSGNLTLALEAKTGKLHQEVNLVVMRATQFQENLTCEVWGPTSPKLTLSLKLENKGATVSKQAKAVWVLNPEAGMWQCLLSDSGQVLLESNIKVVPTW

Kd: 18 nM | Response: 0.14 | koff: 0.0028 s⁻¹ | kon: 150000 M⁻¹ s⁻¹
B1: 75110_07J02A (antibody, V domains shown)
VH: EVQLVESGGGLVQPGGSLRLSCAASGFTFSSYWMSWVRQAPGKGLEWVANIKEDGSEKYYVDSVKGRFTISRDNAKNSLYLQMNSLRAEDTAVYYCARDGSYSGYGMDVWGQGTTVTVSS
VL: AIQMTQSPSSLSASVGDRVTITCRASQGIRNDLGWYQQKPGKAPKLLIYAASSLQSGVPSRFSGRGSGTDFALTISSLQPEDFATYYCLLDYNYPYTFGQGTRLEIK
notes: Tested as antibody purified from AlivaMab Mouse hybridoma supernatant (human variable domains, kappa; mouse Fc, captured on anti-mouse IgG Fc sensors); also called ADS75110 purified AMM Ab

Kd: 5.1 nM | Response: 0.15 | koff: 0.00098 s⁻¹ | kon: 190000 M⁻¹ s⁻¹
B2: 75110_08A13A (antibody, V domains shown)
VH: B1 VH with T28I, E53Q, V61M, G100N, S103Y, G104Y
VL: B1 VL with N31D, Y49F, R61S, R65S, A72T, L90H, D91H, R103K
notes: as for B1

Kd: 2.1 nM | Response: 0.23 | koff: 0.00033 s⁻¹ | kon: 160000 M⁻¹ s⁻¹
B3: 75110_10K21A (antibody, V domains shown)
VH: EVQLVESGGGLVQPGGSLRLSCAASGFTFSSYWMTWVRQAPGKGLEWVANIKQDGSEKYYVDSVKGRFTISRDNAKNSLYLQMNSLRAEDTAVYYCVRDRYDALDIWGQGTMVTVSS
VL: B1 VL with G34N, R65S, A72T, P80A, L90K, R103K
notes: as for B1

Kd: 21 nM | Response: 0.16 | koff: 0.0056 s⁻¹ | kon: 270000 M⁻¹ s⁻¹
B4: 75110_12K21A (antibody, V domains shown)
VH: QVQLQQWGAGLLKPSETLSLTCAVSGGSFSGYYWSWIRQPPGKGLEWIGEINHSGSTNCNPSLKSRVTISVDTSNNQFSLKLSSVTAADTAVYYCARVLNYFDYWGQGTLVTVSS
VL: DIQMTQSPSSVSASVGDRVTITCRASPDIANWLAWYQQKPGKAPELLIYAASSLQSGVPSRFSGSGSGTDFTLTISSLQPEDFATYFCQQANSFPLTFGGGTKVESK
notes: as for B1

Kd: 75 nM | Response: 0.11 | koff: 0.013 s⁻¹ | kon: 170000 M⁻¹ s⁻¹
B5: 75110_13P21A (antibody, V domains shown)
VH: B4 VH
VL: B4 VL
notes: as for B1

Kd: 8.3 nM | Response: 0.09 | koff: 0.0046 s⁻¹ | kon: 550000 M⁻¹ s⁻¹
B6: 75110_13C13A (antibody, V domains shown)
VH: B4 VH with N75K, V92M, Y101F
VL: B4 VL with S7T, D28G, A30S
notes: as for B1

Kd: 3.5 nM | Response: 0.11 | koff: 0.0018 s⁻¹ | kon: 530000 M⁻¹ s⁻¹
B7: 75110_11D03A (antibody, V domains shown)
VH: EVQLVESGGGLVQPGGSLRLSCAASGFTFSSYWMSWVRQAPGKGLEWVANINQDGNEKYYVDSVKGRFTISRDNAKNSLFLQMNSLRAEDTAVYYCAREGGQWLALDYWGQGALVTVSS
VL: DIQMTQSPSSVSASVGDRVTITCRASQGISSWLAWYQQKPGKAPKFLISGASSLQSGVPSRFSGSGSGTDFTLTISSLQPEDFATYYCQQANSFPWTFGQGTKVEIK
notes: as for B1

Kd: 32 nM | Response: 0.15 | koff: 0.003 s⁻¹ | kon: 94000 M⁻¹ s⁻¹
B8: 75110_07H07A (antibody, V domains shown)
VH: B7 VH with L4V, N52K, Q53E, D54E, N56S, F80Y, A97V, A113T
VL: B7 VL with A13G, F46L, S49F, E105Q
notes: as for B1

Kd: 44 nM | Response: 0.14 | koff: 0.004 s⁻¹ | kon: 92000 M⁻¹ s⁻¹
B9: 75110_09N20A (antibody, V domains shown)
VH: B7 VH with Q53E, N56S, F80Y, A97V, A113T
VL: B7 VL with F46L, S49Y, G50A, R61S, S76N, E105A
notes: as for B1

Kd: 22 nM | Response: 0.23 | koff: 0.0032 s⁻¹ | kon: 150000 M⁻¹ s⁻¹
B10: 75110_12H17A (antibody, V domains shown)
VH: B7 VH with S31D, N52K, Q53E
VL: B7 VL with S63T
notes: as for B1

Kd: 36 nM | Response: 0.27 | koff: 0.003 s⁻¹ | kon: 84000 M⁻¹ s⁻¹
B11: 75110_09G15A (antibody, V domains shown)
VH: B7 VH with S31D, N56S, Y60S, F80Y, V93I, Y94F, A113T
VL: B7 VL with F46L, S49Y, S76N, A84T, S93I
notes: as for B1

Kd: 16 nM | Response: 0.1 | koff: 0.0038 s⁻¹ | kon: 240000 M⁻¹ s⁻¹
B12: 75110_12C19A (antibody, V domains shown)
VH: B7 VH with N52K, Q53E, N56S, E57D, F80Y, Y94H, A97V, A113T
VL: B7 VL with A13G, F46L, S49Y, A84V
notes: as for B1

Kd: 14 nM | Response: 0.28 | koff: 0.0026 s⁻¹ | kon: 190000 M⁻¹ s⁻¹
B13: 75110_12H19A (antibody, V domains shown)
VH: B7 VH with K43Q, Q53E, Y60H, F68L, F80Y, A88G, E89V, Y95F
VL: B7 VL with T20S, F46L, S49Y, S53G
notes: as for B1

Kd: 11 nM | Response: 0.22 | koff: 0.0026 s⁻¹ | kon: 230000 M⁻¹ s⁻¹
B14: 75110_08F20A (antibody, V domains shown)
VH: QVQLQESGPGLVKPSETLSLTCSVSGGSISTYYWSWIRQPAGKGLEWIGRICTTENTNYNPSLKSRVTMSIDSSKNQFSLKLSSVTAADTAVYYCARDLERLNYYGMDVWGQGATVTVSS
VL: DIQMTQSPSSLSASVGDRVTITCQASQDISKYLNWYQQKPGIAPKLLIYDASNLETGVPSRFSGSGSGTDFTFTISSLQPEDFATYYCQQYDSLPITFGQGTRLEIK
notes: as for B1

Kd: 19 nM | Response: 0.15 | koff: 0.0041 s⁻¹ | kon: 220000 M⁻¹ s⁻¹
B15: 75110_08G08A (antibody, V domains shown)
VH: B14 VH
VL: B14 VL with K31N, F83I
notes: as for B1

Kd: 14 nM | Response: 0.13 | koff: 0.0027 s⁻¹ | kon: 190000 M⁻¹ s⁻¹
B16: 75110_14I16A (antibody, V domains shown)
VH: QVQLQESGPGLVKPSETLSLTCTVSNGSISSYYWSWIRQSAGKGLEWIGRIYTSGSTNYNPSLKSRVTMLVDTSKNQFSLKLSSVTAADTAVYYCARDREDYYYYGMDVWGQGTTVTVSS
VL: DIQMTQSPSSLSASVGDRVTITCQASHDISNYLNWYQQKPGKAPKLLLYYASNLETGVPSRFSGSGSGTDFTFTITSLQPEDIGTYSCQQYDNLPLTFGGGTKVEIK
notes: as for B1

Kd: 8.2 nM | Response: 0.07 | koff: 0.001 s⁻¹ | kon: 130000 M⁻¹ s⁻¹
B17: 75110_10N21A (antibody, V domains shown)
VH: EVQLVESGGGLVQPGGSLRLSCAASGFTFSSYDMHWVRQVTGKGLEWVSTIGTAGDTYYPGSVKGRFTISRENAKNSLYLQMNSLRAGDTAVYYCARGGYYYYGMDVWGQGTTVTVSS
VL: EIVLTQSPGTLSLSPGERATLSCRASQSFISSYLAWYQQKPGQAPRLLIYGASSRATGIPDRFSGSGSGTDFTLTISRLDPEDFAVYYCQQSGNSPFTFGPGTKVDVK
notes: as for B1

Kd: 3.9 nM | Response: 0.05 | koff: 0.00085 s⁻¹ | kon: 220000 M⁻¹ s⁻¹
B18: 75110_13C07A (antibody, V domains shown)
VH: B17 VH with G10V, S31N, V40A, I69L, N83H, G99A, Y101G
VL: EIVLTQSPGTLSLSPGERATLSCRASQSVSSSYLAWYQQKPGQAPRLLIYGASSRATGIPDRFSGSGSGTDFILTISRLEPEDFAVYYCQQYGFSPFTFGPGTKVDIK
notes: as for B1

Kd: < 0.001 nM | Response: 0.03 | koff: < 1e-07 s⁻¹ | kon: 13000 M⁻¹ s⁻¹
B19: 75110_07N04A (antibody, V domains shown)
VH: QVQLQESGPGLVKPSETLSLTCSVSGVSSTSFYWSWIRQPAGKGLDWIGRIYTSGSTNYNPSLKSRVTMSVDTSKNQFSLKLSSVTAADTAVYYCARDPGYSDAFAIWGQGTMVTVSS
VL: not shown
notes: as for B1
